Results reported in ChEMBL document CHEMBL3414448, “Advances in the discovery of novel antimicrobials targeting the assembly of bacterial cell division protein FtsZ” (Eur J Med Chem, 2015).

Compound: N=C(N)c1ccc(-c2cc3ccc(C(=N)N)cc3[nH]2)cc1
Assay: Inhibition of Escherichia coli FtsZ assessed as reduction in substrate KM value

B1: Cell division protein FtsZ (Escherichia coli K-12), P0A9A6 (protein)
chain: MFEPMELTNDAVIKVIGVGGGGGNAVEHMVRERIEGVEFFAVNTDAQALRKTAVGQTIQIGSGITKGLGAGANPEVGRNAADEDRDALRAALEGADMVFIAAGMGGGTGTGAAPVVAEVAKDLGILTVAVVTKPFNFEGKKRMAFAEQGITELSKHVDSLITIPNDKLLKVLGRGISLLDAFGAANDVLKGAVQGIAELITRPGLMNVDFADVRTVMSEMGYAMMGSGVASGEDRAEEAAEMAISSPLLEDIDLSGARGVLVNITAGFDLRLDEFETVGNTIRAFASDNATVVIGTSLDPDMNDELRVTVVATGIGMDKRPEITLVTNKQVQQPVMDRYQQHGMAPLTQEQKPVAKVVNDNAPQTAKEPDYLDIPAFLRKQAD
For B1, which Km is on record?
The Km was 29.4 µM.
